From PMC6467989, “RNA recognition motifs of disease-linked RNA-binding proteins contribute to amyloid formation” (Scientific Reports, 2019)

How the values were obtained:
[1] = target: the molecule itself; test: X-ray fibre diffraction; fibrils grown by agitation at room temperature for two days (RRMs 50 μM in 10 mM phosphate pH 7.5, 50 mM NaCl; peptides in water), also seen by negative-stain TEM; fibrils centrifuged, washed, dried, diffraction at room temperature; self-assembly into amyloid fibrils
[2] = target: the molecule itself; test: Thioflavin T fluorescence; fresh protein or fibrillar solutions mixed with ThT (final 20 μM), 10 mM phosphate buffer, excited at 442 nm, emission 460–600 nm; self-assembly into amyloid-like aggregates
[3] = target: the molecule itself; test: ATR-FTIR spectroscopy; fresh protein or peptide against freshly prepared fibrils washed and re-suspended in D2O; amide I band 1600–1700 cm^-1; self-assembly into amyloid fibrils of parallel β-sheets

Row | Protein | binding result [1] | also measured
1 | GEVLMVQVKK (TDP-43, human, β2 strand of RRM1, residues 128-137; source: synthetic peptide (synthesized by Mission Biotech)) [TDP-43 RRM1 β2b peptide] | binds | –
2 | VLMVQVKK (TDP-43, human, β2 strand of RRM1, residues 130-137; source: synthetic peptide (synthesized by Mission Biotech)) [TDP-43 RRM1 β2a peptide] | binds | –
3 | FUS RRM (residues 281–375) (domain or fragment, human, UniProt P35637 281-375, looked up, Fused in Sarcoma (FUS), human, RNA recognition motif, residues 281-375; Vector PQE30 or pET28a; also called Fused in Sarcoma RRM; source: E. coli (M15 or BL21-CodonPlus (DE3) RIPL), purified (HisTrap FF, HiTrap Heparin HP, Superdex 75)) NSDNNTIFVQGLGENVTIESVADYFKQIGIIKTNKKTGQPMINLYTDRETGKLKGEATVSFDDPPSAKAAIDWFDGKEFSGNPIKVSFATRRADF | – | binding result [2]: binds
4 | MINLYT (FUS, human, β2 strand of the RRM, residues 321-326; source: synthetic peptide (synthesized by Mission Biotech)) [FUS RRM β2 peptide] | – | binding result [3]: binds
